In paper PMC12646314, “Structure and encapsulation of carbonic anhydrase within the α-carboxysome” (Proceedings of the National Academy of Sciences of the …, 2025):

T1: CsoS4A-CsoS1A minishell (Construct 4, S4A-S1A) (Halothiobacillus neapolitanus, UniProt O85043 1-83; P45689 1-98)
T1 construct: CsoS4A, shell pentamer of H. neapolitanus; CsoS1A, major shell hexamer of H. neapolitanus; Icosahedral shells, T = 3 and T = 4 populations; also called minishells; mini-α-shells; source: E. coli TOP10, purified (sucrose cushion and gradient, HiTrap Q FF anion exchange)
T1 sequence 1: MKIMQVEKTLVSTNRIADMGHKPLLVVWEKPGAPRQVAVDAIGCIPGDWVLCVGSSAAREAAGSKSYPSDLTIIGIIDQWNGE
T1 sequence 2: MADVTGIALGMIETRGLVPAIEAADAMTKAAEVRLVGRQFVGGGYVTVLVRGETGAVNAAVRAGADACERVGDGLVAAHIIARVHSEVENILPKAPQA

B1: CsoS4A (shell pentamer) (natural protein, Halothiobacillus neapolitanus)
chain: T1 sequence 1
notes: CsoS4A, alpha-carboxysome shell vertex protein of H. neapolitanus; also called CsoS4A pentamer; source: E. coli TOP10, expressed from the minishell construct, in purified minishells
B2: Twin-Strep-GB1-CsoSCA (Halothiobacillus neapolitanus carboxysomal carbonic anhydrase) (enzyme)
chain: NTRNTRSKQRAPFGVSSSVKPRLDLIEQAPNPAYDRHPACITLPERTCRHPLTDLEANEQLGRCEDSVKNRFDRVIPFLQVVAGIPLGLDYVTRVQELAQSSLGHTLPEELLKDNWISGHNLKGIFGYATAKALTAATEQFSRKIMSEKDDSASAIGFFLDCGFHAVDISPCADGRLKGLLPYILRLPLTAFTYRKAYAGSMFDIEDDLAQWEKNELRRYREGVPNTADQPTRYLKIAVYHFSTSDPTHSGCAAHGSNDRAALEAALTQLMKFREAVENAHCCGASIDILLIGVDTDTDAIRVHIPDSKGFLNPYRYVDNTVTYAQTLHLAPDEARVIIHEAILNANRSDGWAKGNGVASEGMRRFIGQLLINNLSQIDYVVNRHGGRYPPNDIGHAERYISVGDGFDEVQIRNLAYYAHLDTVEENAIDVDVGIKIFTKLNLSRGLPIPIAIHYRYDPNVPGSRERTVVKARRIYNAIKERFSSLDEQNLLQFRLSVQAQDIGSPIEEVASA
notes: CsoSCA, alpha-carboxysomal beta-class carbonic anhydrase of Halothiobacillus neapolitanus; UniProt O85042; the domain scheme runs from residue 1 to 514; Vector pETM11; TEV protease was used to remove the tags only for DLS; also called HnCsoSCA; source: Superdex 200 for cryo-EM; not shown: Twin-Strep, N-terminal, kept
B3: CsoS1A (the major shell hexamer) (natural protein, Halothiobacillus neapolitanus)
chain: T1 sequence 2
notes: CsoS1A, major alpha-carboxysome shell protein of H. neapolitanus; also called CsoS1A shell hexamer; source: E. coli TOP10, expressed from the minishell construct; in lysate (pull-down) and in purified minishells (cryo-EM)
B4: CsoSCA-His6 (CsoSCA fused to a C-terminal His6 tag) (enzyme, Halothiobacillus neapolitanus, UniProt O85042 1-514, looked up)
chain: MNTRNTRSKQRAPFGVSSSVKPRLDLIEQAPNPAYDRHPACITLPERTCRHPLTDLEANEQLGRCEDSVKNRFDRVIPFLQVVAGIPLGLDYVTRVQELAQSSLGHTLPEELLKDNWISGHNLKGIFGYATAKALTAATEQFSRKIMSEKDDSASAIGFFLDCGFHAVDISPCADGRLKGLLPYILRLPLTAFTYRKAYAGSMFDIEDDLAQWEKNELRRYREGVPNTADQPTRYLKIAVYHFSTSDPTHSGCAAHGSNDRAALEAALTQLMKFREAVENAHCCGASIDILLIGVDTDTDAIRVHIPDSKGFLNPYRYVDNTVTYAQTLHLAPDEARVIIHEAILNANRSDGWAKGNGVASEGMRRFIGQLLINNLSQIDYVVNRHGGRYPPNDIGHAERYISVGDGFDEVQIRNLAYYAHLDTVEENAIDVDVGIKIFTKLNLSRGLPIPIAIHYRYDPNVPGSRERTVVKARRIYNAIKERFSSLDEQNLLQFRLSVQAQDIGSPIEEVASA
notes: CsoSCA of H. neapolitanus, UniProt O85042; called full-length CsoSCA in the discussion; also called full-length CsoSCA; source: E. coli TOP10, coexpressed with minishell constructs, co-purified with minishells; not shown: His6, C-terminal, kept

Key:
[1] = target: the molecule itself; assay: cryo-EM structure; single-particle cryo-EM of purified T = 4 minishell/CsoSCA^ΔC (2.36 Å symmetry relaxed) and minishell/CsoSCA-C (3.05 Å); internal density seen at low contour, disordered
[2] = target: the molecule itself; assay: SEC-MALS; Superdex 200 Increase 10/300 GL, 0.70 mL/min, Buffer W (100 mM Tris/HCl pH 8, 150 mM NaCl, 1 mM EDTA), room temperature; injected at 5.6 mg/mL (CsoSCA), 0.9 mg/mL (CsoSCA-N), 1 mg/mL (CsoSCA^ΔC), 1.9 mg/mL (CsoSCA-C)
[3] = target: T1, CsoS4A-CsoS1A minishell (Construct 4, …); assay: co-purification with assembled minishells (sucrose cushion and gradient, anion exchange), immunoblot; CsoSCA constructs coexpressed with minishell constructs in E. coli TOP10; minishells purified; samples normalised to CsoS1A; anti-His blot; details: partners not purified

Binder	stoichiometry N [1]	further results
B1	5	–
B2	–	stoichiometry N [2]: 6
B3	6	–
B4	–	fold copurified CsoSCA, against minishells with CsoS2 [3]: ≥ 4 fold
